# Reference: US20260078416A1, “ORTHOGONAL METABOLIC FRAMEWORK FOR ONE-CARBON UTILIZATION” (Mojia Biotech Pte. Ltd., priority 2021, published 2026)
# System: tartronate production from glyoxylate and formate
# Assay: HACS screening with glyoxylate and formate (tartronate productivity)
# Format: cell-based, E. coli
# Details: 5 mM glyoxylate and 20 mM formate, first round
# Text: We used 2-hydroxyacid productivity per cell density (μM/OD600) as indicator of HACS activity. 2-Hydroxyacids can be produced co-feeding various aldehydes and formic acid (formate) as carbon source in the presence of active HACS variant and acyl-CoA transferase from Clostridium aminobutyricum (CaAbfT). CaAbfT is shown to be capable of catalyzing reaction from formate to formyl-CoA (Nattermann, M., et al. ACS Catal 11 (9): 5396-5404 (2021)). HACS condenses aldehyde and formyl-CoA to form 2-hydroxyacyl-CoA, which can then be hydrolyzed to 2-hydroxyacid via native thioesterase activities (FIG. 31A).
# For the in vivo prototyping, we engineered vectors to independently control expression of HACS variants and CaAbfT, with HACS under control of the IPTG-inducible T7 promoter in pCDFDuet-1 and CaAbfT under control of a cumate-inducible T5 promoter in pETDuet-1 (FIG. 31B) and transformed them into the engineered strain of E. coli described in EXAMPLE 3.
# The HACS variants were screened for 2-hydroxyacid production using the high throughput screening platform as described in EXAMPLE 3 by co-feeding 5 mM aldehyde and 20 mM formate. The cells were harvested after 1 hour by centrifugation and the supernatant analyzed by HPLC (as described in EXAMPLE 2) or SoGO method.
# We used tartronic acid (tartronate) productivity per cell density (uM tartronate/OD600) as indicator of HACS activity. […]
molecule,measurement,value
JGI20: HACS variant; GenBank PWB41796.1 (protein) MGQITGAQIVARALKQQGVEYMFGIVGIPVIPIAMFAQREGIKFYGFRNEQSASYAAAAVGYLTGRPGVCLGVSGPGMIHGVAGMANAWSNCWPMILIGGANDSYQNGQGAFQEAPQIEAARPFAKYCARPDSLARLPFYVEQAVRTSIYGRPGAVYLDLPGDIITGAMEEEDVHFPPRCPDAPRMMAPQESIDAAMAALKSAERPLVIVGKGAAYSRAENEVREFLETTQLPYLASPMGKGVMPDDHPLSIAPARSAALLGADVILLMGARLNWMMHFGHPPRFDPKVRVIQMDISAEEIGTNVPTEVALVGDAKAITTQLNASLKQQPWQYPSETTWWTGLRKKIDENGATVAEMMADESVPMSYYRVYREIRDLIPNDAIIQNEGASTMDIGRTLMPNFLPRHRLDAGSFGTMGVGLGQAIAAAAVHPDKHVFCIEGDSAFGFSGMEVETAARYGMKNITFIIINNNGIGGGPDTLDPTRVPPSAYTPNAHYEKMAEIYGGKGYFVTEPSQLRPALEEAIKADKPAIVNIMISATSQRKPQQFAWLTR,better tartronate productivity compared to other HACS variants,30%
